Measured values: article PMC10259489, “Identification of epigenetic modulators as determinants of nuclear size and shape” (eLife, 2023)
Blank lines part the entries; values can stand above or below the binder they belong to.

How the values were obtained:
[1] = molecular target: T1, GST-lamin A (aa 389–646), entire Ig-fold and C-terminus (human, UniProt P02545 389-646); assay: pull-down; calf thymus histone pull-down with GST-lamin A (wild type or C522A) and GST-lamin C (389–572) co-incubated, with or without DTT; settings: both partners purified
T1 construct: pGEX4T1 construct; also called full-length lamin A tail; source: E. coli Rosetta 2, purified (glutathione Sepharose 4B); not shown: GST, N-terminal, kept
T1 sequence (looked up): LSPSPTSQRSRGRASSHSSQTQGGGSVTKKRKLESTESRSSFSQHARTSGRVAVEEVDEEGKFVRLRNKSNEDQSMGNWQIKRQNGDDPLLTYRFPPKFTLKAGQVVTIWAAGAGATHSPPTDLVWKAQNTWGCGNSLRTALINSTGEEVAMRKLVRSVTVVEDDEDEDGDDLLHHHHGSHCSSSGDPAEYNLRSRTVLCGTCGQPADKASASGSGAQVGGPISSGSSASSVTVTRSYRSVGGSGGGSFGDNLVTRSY

[2] = molecular target: T2, histone H3R8me2/K9me2 peptide (R8me2, K9me2); assay: peptide or protein array; MODified histone peptide array (Active Motif, 384 peptides spotted); 10 nM purified GST-lamin A (pACS37) in 100 mM KCl, 20 mM HEPES pH 7.5, 1 mM EDTA, 0.1 mM DTT, 10% glycerol, room temperature 1 hr; detected with anti-GST and HRP secondary, ECL; settings: both partners purified
T2 chain: ARTKQTARKSTGGKAPRKQ

binding result [1]: binds
B1: GST-lamin C (aa 389–572), C-terminal region of lamin C (domain or fragment, human, UniProt P02545-2 389-572, looked up)
chain: LSPSPTSQRSRGRASSHSSQTQGGGSVTKKRKLESTESRSSFSQHARTSGRVAVEEVDEEGKFVRLRNKSNEDQSMGNWQIKRQNGDDPLLTYRFPPKFTLKAGQVVTIWAAGAGATHSPPTDLVWKAQNTWGCGNSLRTALINSTGEEVAMRKLVRSVTVVEDDEDEDGDDLLHHHHVSGSRR
notes: pGEX4T1 construct; source: E. coli Rosetta 2, purified (glutathione Sepharose 4B); not shown: GST, N-terminal, kept

fold signal against H3K9me2 [2]: ~5 fold
B2: GST-lamin A (506–646) (domain or fragment, human, UniProt P02545 506-646, looked up)
chain: HSPPTDLVWKAQNTWGCGNSLRTALINSTGEEVAMRKLVRSVTVVEDDEDEDGDDLLHHHHGSHCSSSGDPAEYNLRSRTVLCGTCGQPADKASASGSGAQVGGPISSGSSASSVTVTRSYRSVGGSGGGSFGDNLVTRSY
notes: detected by anti-GST; also called GST-lamin A (pACS37); source: E. coli Rosetta 2, purified (glutathione Sepharose 4B); not shown: GST, N-terminal, kept
